# Laboratory results as given in US20040029228A1.
# Tests used:
# Test in all cases: cell-based or functional assay
# [1] = molecular target: T1, human zcytor19 (Zyctor19) cytokine receptor (human)
# T1 sequence (Q8IU57 1-520, looked up): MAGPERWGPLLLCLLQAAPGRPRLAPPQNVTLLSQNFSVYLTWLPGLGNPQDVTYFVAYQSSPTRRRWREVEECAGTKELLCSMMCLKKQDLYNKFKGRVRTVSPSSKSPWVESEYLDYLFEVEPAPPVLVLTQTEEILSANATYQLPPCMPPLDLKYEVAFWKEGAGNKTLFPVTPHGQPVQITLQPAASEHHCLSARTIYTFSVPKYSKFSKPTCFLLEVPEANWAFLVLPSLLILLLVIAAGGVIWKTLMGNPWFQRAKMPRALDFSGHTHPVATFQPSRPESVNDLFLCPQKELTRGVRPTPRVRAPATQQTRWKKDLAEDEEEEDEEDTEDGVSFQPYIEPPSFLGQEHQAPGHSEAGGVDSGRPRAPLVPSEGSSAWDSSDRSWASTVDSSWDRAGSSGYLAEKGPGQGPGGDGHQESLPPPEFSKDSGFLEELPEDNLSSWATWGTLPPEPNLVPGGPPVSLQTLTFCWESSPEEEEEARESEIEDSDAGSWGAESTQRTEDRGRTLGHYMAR
# [2] = molecular target: human CRF2-4 (IL10Rb) (human)
# Sequence of human CRF2-4 (IL10Rb) (human) (Q08334 whole entry): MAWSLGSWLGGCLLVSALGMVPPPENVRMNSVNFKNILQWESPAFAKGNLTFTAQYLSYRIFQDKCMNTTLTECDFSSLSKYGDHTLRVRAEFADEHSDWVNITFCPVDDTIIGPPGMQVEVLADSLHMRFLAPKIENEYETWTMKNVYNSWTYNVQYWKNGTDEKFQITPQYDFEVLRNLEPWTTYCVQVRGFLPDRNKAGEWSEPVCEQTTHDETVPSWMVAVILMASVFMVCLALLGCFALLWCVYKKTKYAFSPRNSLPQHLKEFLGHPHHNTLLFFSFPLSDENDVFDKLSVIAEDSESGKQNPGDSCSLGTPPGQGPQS
# [3] = molecular target: zcytoR19 and IL10Rb (CRF2-4) co-expressed on cells (heterodimeric receptor) (human)
# Sequence of zcyto21 (ligand) (Q8IU54 20-200): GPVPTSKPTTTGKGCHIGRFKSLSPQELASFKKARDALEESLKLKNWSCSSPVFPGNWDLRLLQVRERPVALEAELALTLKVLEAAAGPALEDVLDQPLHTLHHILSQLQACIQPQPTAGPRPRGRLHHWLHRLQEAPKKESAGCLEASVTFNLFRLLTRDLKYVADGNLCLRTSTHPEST
substance,measurement,setting,value
huIL10 (from UniProt P22301 19-178) (ligand),"ISRE-luciferase fold induction, 293 cells transfected with ISRE-Luc./Zcytor19, HuIL10 100 ng/ml (fold induction)",[1],0.5
zcyto10 (from UniProt Q9NYY1 25-176) (ligand),"ISRE-luciferase fold induction, 293 cells transfected with ISRE-Luc./Zcytor19, Zcyto10 125 ng/ml (fold induction)",[1],1
zcyto20 (ligand),"ISRE-luciferase fold induction, wild-type 293 cells, Zcyto20 0.01 ng/ml (fold induction)",[2],1
same,"ISRE-luciferase fold induction, wild-type 293 cells, Zcyto20 0.01 ng/ml + IL10Rb neutralizing Antibody (fold induction)",[2],0.8
same,"ISRE-luciferase fold induction, wild-type 293 cells, Zcyto20 0.1 ng/ml (fold induction)",[2],1
same,"ISRE-luciferase fold induction, wild-type 293 cells, Zcyto20 0.1 ng/ml + IL10Rb neutralizing Antibody (fold induction)",[2],1
same,"ISRE-luciferase fold induction, wild-type 293 cells, Zcyto20 1 ng/ml (fold induction)",[2],1
same,"ISRE-luciferase fold induction, wild-type 293 cells, Zcyto20 1 ng/ml + IL10Rb neutralizing Antibody (fold induction)",[2],0.9
same,"ISRE-luciferase fold induction, wild-type 293 cells, Zcyto20 10 ng/ml (fold induction)",[2],4
same,"ISRE-luciferase fold induction, wild-type 293 cells, Zcyto20 10 ng/ml + IL10Rb neutralizing Antibody (fold induction)",[2],0.9
same,"ISRE-luciferase fold induction, wild-type 293 cells, Zcyto20 100 ng/ml (fold induction)",[2],8.4
same,"ISRE-luciferase fold induction, wild-type 293 cells, Zcyto20 100 ng/ml + IL10Rb neutralizing Antibody (fold induction)",[2],0.8
same,"ISRE-luciferase fold induction, zcytoR19-overexpressing 293 cells, Zcyto20 0.01 ng/ml (fold induction)",[2],1.1
same,"ISRE-luciferase fold induction, zcytoR19-overexpressing 293 cells, Zcyto20 0.01 ng/ml + IL10Rb neutralizing Antibody (fold induction)",[2],1.2
same,"ISRE-luciferase fold induction, zcytoR19-overexpressing 293 cells, Zcyto20 0.1 ng/ml (fold induction)",[2],6
same,"ISRE-luciferase fold induction, zcytoR19-overexpressing 293 cells, Zcyto20 0.1 ng/ml + IL10Rb neutralizing Antibody (fold induction)",[2],1.1
same,"ISRE-luciferase fold induction, zcytoR19-overexpressing 293 cells, Zcyto20 1 ng/ml (fold induction)",[2],68
same,"ISRE-luciferase fold induction, zcytoR19-overexpressing 293 cells, Zcyto20 1 ng/ml + IL10Rb neutralizing Antibody (fold induction)",[2],1.3
same,"ISRE-luciferase fold induction, zcytoR19-overexpressing 293 cells, Zcyto20 10 ng/ml (fold induction)",[2],97
same,"ISRE-luciferase fold induction, zcytoR19-overexpressing 293 cells, Zcyto20 10 ng/ml + IL10Rb neutralizing Antibody (fold induction)",[2],23
same,"ISRE-luciferase fold induction, zcytoR19-overexpressing 293 cells, Zcyto20 100 ng/ml (fold induction)",[2],91
same,"ISRE-luciferase fold induction, zcytoR19-overexpressing 293 cells, Zcyto20 100 ng/ml + IL10Rb neutralizing Antibody (fold induction)",[2],60
same,"ISRE-luciferase fold induction, 293 cells transfected with ISRE-Luc./Zcytor19, Zcyto20 125 ng/ml (fold induction)",[1],125
same,"ISRE-luciferase fold induction, BHK cells transfected with zcytoR19 alone, zcyto20 0.001 ng/ml (fold induction)",[1],1.4
same,"ISRE-luciferase fold induction, BHK cells transfected with zcytoR19 alone, zcyto20 0.01 ng/ml (fold induction)",[1],1.2
same,"ISRE-luciferase fold induction, BHK cells transfected with zcytoR19 alone, zcyto20 0.1 ng/ml (fold induction)",[1],1.25
same,"ISRE-luciferase fold induction, BHK cells transfected with zcytoR19 alone, zcyto20 1 ng/ml (fold induction)",[1],1.3
same,"ISRE-luciferase fold induction, BHK cells transfected with zcytoR19 alone, zcyto20 10 ng/ml (fold induction)",[1],2.1
same,"ISRE-luciferase fold induction, BHK cells transfected with zcytoR19 alone, zcyto20 100 ng/ml (fold induction)",[1],2.2
same,"ISRE-luciferase fold induction, BHK cells transfected with zcytoR19 alone, zcyto20 1000 ng/ml (fold induction)",[1],2.25
same,"ISRE-luciferase fold induction, BHK cells transfected with zcytoR19 and IL10Rb (CRF2-4), zcyto20 0.001 ng/ml (fold induction)",[3],1.5
same,"ISRE-luciferase fold induction, BHK cells transfected with zcytoR19 and IL10Rb (CRF2-4), zcyto20 0.01 ng/ml (fold induction)",[3],1.6
same,"ISRE-luciferase fold induction, BHK cells transfected with zcytoR19 and IL10Rb (CRF2-4), zcyto20 0.1 ng/ml (fold induction)",[3],2.1
same,"ISRE-luciferase fold induction, BHK cells transfected with zcytoR19 and IL10Rb (CRF2-4), zcyto20 1 ng/ml (fold induction)",[3],2.5
same,"ISRE-luciferase fold induction, BHK cells transfected with zcytoR19 and IL10Rb (CRF2-4), zcyto20 10 ng/ml (fold induction)",[3],2.4
same,"ISRE-luciferase fold induction, BHK cells transfected with zcytoR19 and IL10Rb (CRF2-4), zcyto20 100 ng/ml (fold induction)",[3],2.6
same,"ISRE-luciferase fold induction, BHK cells transfected with zcytoR19 and IL10Rb (CRF2-4), zcyto20 1000 ng/ml (fold induction)",[3],2.1
zcyto20-CEE (ligand),"Optical Density (570 nm) of EMCV-infected cells, HuzcytoR19-overexpressing 293 cells, Zcyto20-CEE 0.5 ng/ml, Anti-IL10Rb 5 µg/ml",[2],0.95 OD 570 nm
same,"Optical Density (570 nm) of EMCV-infected cells, HuzcytoR19-overexpressing 293 cells, Zcyto20-CEE 0.5 ng/ml, Anti-LeptinR control antibody 5 µg/ml",[2],2.24 OD 570 nm
same,"Optical Density (570 nm) of EMCV-infected cells, wild-type 293 cells, Zcyto20-CEE 200 ng/ml, Anti-IL10Rb 5 µg/ml",[2],0.94 OD 570 nm
same,"Optical Density (570 nm) of EMCV-infected cells, wild-type 293 cells, Zcyto20-CEE 200 ng/ml, Anti-LeptinR control antibody 5 µg/ml",[2],1.88 OD 570 nm
zcyto21 (ligand),"ISRE-luciferase fold induction, wild-type 293 cells, Zcyto21 0.001 ng/ml (fold induction)",[2],1.2
same,"ISRE-luciferase fold induction, wild-type 293 cells, Zcyto21 0.001 ng/ml + IL10Rb neutralizing Antibody (fold induction)",[2],1.3
same,"ISRE-luciferase fold induction, wild-type 293 cells, Zcyto21 0.01 ng/ml (fold induction)",[2],1.2
same,"ISRE-luciferase fold induction, wild-type 293 cells, Zcyto21 0.01 ng/ml + IL10Rb neutralizing Antibody (fold induction)",[2],1.3
same,"ISRE-luciferase fold induction, wild-type 293 cells, Zcyto21 0.1 ng/ml (fold induction)",[2],1.1
same,"ISRE-luciferase fold induction, wild-type 293 cells, Zcyto21 0.1 ng/ml + IL10Rb neutralizing Antibody (fold induction)",[2],1.3
same,"ISRE-luciferase fold induction, wild-type 293 cells, Zcyto21 1 ng/ml (fold induction)",[2],1.5
same,"ISRE-luciferase fold induction, wild-type 293 cells, Zcyto21 1 ng/ml + IL10Rb neutralizing Antibody (fold induction)",[2],1.3
same,"ISRE-luciferase fold induction, wild-type 293 cells, Zcyto21 10 ng/ml (fold induction)",[2],3.2
same,"ISRE-luciferase fold induction, wild-type 293 cells, Zcyto21 10 ng/ml + IL10Rb neutralizing Antibody (fold induction)",[2],1.4
same,"ISRE-luciferase fold induction, wild-type 293 cells, Zcyto21 100 ng/ml (fold induction)",[2],4.1
same,"ISRE-luciferase fold induction, wild-type 293 cells, Zcyto21 100 ng/ml + IL10Rb neutralizing Antibody (fold induction)",[2],1.8
same,"ISRE-luciferase fold induction, zcytoR19-overexpressing 293 cells, Zcyto21 0.001 ng/ml (fold induction)",[2],1.1
same,"ISRE-luciferase fold induction, zcytoR19-overexpressing 293 cells, Zcyto21 0.001 ng/ml + IL10Rb neutralizing Antibody (fold induction)",[2],1
same,"ISRE-luciferase fold induction, zcytoR19-overexpressing 293 cells, Zcyto21 0.01 ng/ml (fold induction)",[2],1.5
same,"ISRE-luciferase fold induction, zcytoR19-overexpressing 293 cells, Zcyto21 0.01 ng/ml + IL10Rb neutralizing Antibody (fold induction)",[2],1.1
same,"ISRE-luciferase fold induction, zcytoR19-overexpressing 293 cells, Zcyto21 0.1 ng/ml (fold induction)",[2],3.5
same,"ISRE-luciferase fold induction, zcytoR19-overexpressing 293 cells, Zcyto21 0.1 ng/ml + IL10Rb neutralizing Antibody (fold induction)",[2],1
same,"ISRE-luciferase fold induction, zcytoR19-overexpressing 293 cells, Zcyto21 1 ng/ml (fold induction)",[2],35
same,"ISRE-luciferase fold induction, zcytoR19-overexpressing 293 cells, Zcyto21 1 ng/ml + IL10Rb neutralizing Antibody (fold induction)",[2],5.8
same,"ISRE-luciferase fold induction, zcytoR19-overexpressing 293 cells, Zcyto21 10 ng/ml (fold induction)",[2],48
same,"ISRE-luciferase fold induction, zcytoR19-overexpressing 293 cells, Zcyto21 10 ng/ml + IL10Rb neutralizing Antibody (fold induction)",[2],28
same,"ISRE-luciferase fold induction, zcytoR19-overexpressing 293 cells, Zcyto21 100 ng/ml (fold induction)",[2],45
same,"ISRE-luciferase fold induction, zcytoR19-overexpressing 293 cells, Zcyto21 100 ng/ml + IL10Rb neutralizing Antibody (fold induction)",[2],31
same,"ISRE-luciferase fold induction, BHK cells transfected with zcytoR19 alone, zcyto21 0.001 ng/ml (fold induction)",[1],1.3
same,"ISRE-luciferase fold induction, BHK cells transfected with zcytoR19 alone, zcyto21 0.01 ng/ml (fold induction)",[1],1.4
same,"ISRE-luciferase fold induction, BHK cells transfected with zcytoR19 alone, zcyto21 0.1 ng/ml (fold induction)",[1],1.4
same,"ISRE-luciferase fold induction, BHK cells transfected with zcytoR19 alone, zcyto21 1 ng/ml (fold induction)",[1],2
same,"ISRE-luciferase fold induction, BHK cells transfected with zcytoR19 alone, zcyto21 10 ng/ml (fold induction)",[1],2.4
same,"ISRE-luciferase fold induction, BHK cells transfected with zcytoR19 alone, zcyto21 100 ng/ml (fold induction)",[1],2.6
same,"ISRE-luciferase fold induction, BHK cells transfected with zcytoR19 alone, zcyto21 1000 ng/ml (fold induction)",[1],3.3
same,"ISRE-luciferase fold induction, BHK cells transfected with zcytoR19 and IL10Rb (CRF2-4), zcyto21 0.001 ng/ml (fold induction)",[3],1.3
same,"ISRE-luciferase fold induction, BHK cells transfected with zcytoR19 and IL10Rb (CRF2-4), zcyto21 0.01 ng/ml (fold induction)",[3],1.6
same,"ISRE-luciferase fold induction, BHK cells transfected with zcytoR19 and IL10Rb (CRF2-4), zcyto21 0.1 ng/ml (fold induction)",[3],2.2
same,"ISRE-luciferase fold induction, BHK cells transfected with zcytoR19 and IL10Rb (CRF2-4), zcyto21 1 ng/ml (fold induction)",[3],2.5
same,"ISRE-luciferase fold induction, BHK cells transfected with zcytoR19 and IL10Rb (CRF2-4), zcyto21 10 ng/ml (fold induction)",[3],2.6
same,"ISRE-luciferase fold induction, BHK cells transfected with zcytoR19 and IL10Rb (CRF2-4), zcyto21 100 ng/ml (fold induction)",[3],2.5
same,"ISRE-luciferase fold induction, BHK cells transfected with zcytoR19 and IL10Rb (CRF2-4), zcyto21 1000 ng/ml (fold induction)",[3],2.2
